The results in this text go back to patent US20240301071A1 (Alector, published 2024).

Assay [1] concerns the target T1, human SIRPA v1 on BWZ cells (BWZ-huSIRPA) (human, UniProt P78324 31-504).
T1 construct: also called BWZ cells overexpressing human SIRPA; BWZ-huSIRPA v1 cells
Description: flow cytometry titration on BWZ-huSIRPA cells, 4 C. As to the method: After addition of fluorescently labeled secondary antibody and brief washing steps, MFI values as a function of titrated antibody concentration was recorded via FACS analysis. […] Receptor bound antibodies were detected by staining cells with anti-human IgG PE secondary antibody. Curves were fit using nonlinear regression analysis with Graphpad Prism 6 software.
On the technique in general: Flow cytometry measures light scatter and fluorescence of single cells or particles in a stream.

For assay [2], the target named is T2, histidine-tagged human SIRPA v1 (Novoprotein) (human, UniProt P78324 31-370, limits assumed).
T2 construct: bought, soluble; also called huSIRPA; soluble huSIRPA; not shown: histidine tag
T2 sequence (P78324 31-370 limits assumed): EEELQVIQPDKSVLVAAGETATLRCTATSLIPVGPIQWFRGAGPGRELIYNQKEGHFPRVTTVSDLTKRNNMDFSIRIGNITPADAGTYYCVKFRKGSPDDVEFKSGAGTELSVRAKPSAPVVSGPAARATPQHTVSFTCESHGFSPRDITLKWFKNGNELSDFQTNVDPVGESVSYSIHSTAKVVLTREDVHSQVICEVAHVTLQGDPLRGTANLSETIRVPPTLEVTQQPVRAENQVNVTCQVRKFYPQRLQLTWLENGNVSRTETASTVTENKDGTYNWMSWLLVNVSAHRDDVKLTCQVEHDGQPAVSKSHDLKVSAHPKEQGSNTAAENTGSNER
The assay is described as follows: BLI (Octet). As to the method: (§1) Initial characterization of affinity matured anti-SIRPA antibodies disclosed herein comprised acquiring antigen affinity measurements using bio-layer interferometry (BLI) on a Pall ForteBio Octet RED96 instrument. Immobilized anti-mouse IgG Fc or anti-human IgG Fc antibodies captured murine anti-SIRPA 3F79 antibody and humanized anti-SIRPA 3F79 antibody on biosensors, respectively. Single cycle kinetics were performed with 25 nM huSIRPA [which variant?] or 50 nM huSIRPB 1 flowed over captured antibody 3F79 to record traces. Data analysis was performed using ForteBio Data Analysis Software, version 9.0. Standard kinetic buffer (PBS, 0.100 BSA, 0.02% Tween-20, pH 7.2) was used for the assay and for preparing reagents. […] 50 nM of histidine-tagged human SIRPA vi or human SIRPB1 (Novoprotein, Summit, NJ, USA) were then bound to the captured anti-SIRPA antibody coated surface (200 s association time, 900 s dissociation time). […] Single-curve kinetic analysis was performed using a 1:1 interaction model to extract association and dissociation rate constants (ka and kd, respectively) for each antibody. Affinity constants (KD) were calculated from the ratio kd/ka.
(In general: Biolayer interferometry detects binding as a change in optical thickness at a sensor tip.)

Assay [3] addresses T3, human SIRPA on human macrophages (primary monocyte-derived macrophages; U937 line) (human, UniProt P78324 31-504). The assay is described as follows: cell-based or functional assay.
Assay [4] addresses T3, human SIRPA on human macrophages …. Description: cell-based or functional assay. The source holds these as a separate data set.
Assay [5] has as its target T2, histidine-tagged human SIRPA v1 …. Description: BLI (Octet), antibody on anti-human IgG Fc sensor, His-huSIRPA in solution, single-curve 1:1 fit. As to the method:
as §1

The target in assay [6] is T4, Fc-tagged dog SIRPA (accession no. XP005634938) (dog, UniProt A0A8I3P880).
T4 sequence: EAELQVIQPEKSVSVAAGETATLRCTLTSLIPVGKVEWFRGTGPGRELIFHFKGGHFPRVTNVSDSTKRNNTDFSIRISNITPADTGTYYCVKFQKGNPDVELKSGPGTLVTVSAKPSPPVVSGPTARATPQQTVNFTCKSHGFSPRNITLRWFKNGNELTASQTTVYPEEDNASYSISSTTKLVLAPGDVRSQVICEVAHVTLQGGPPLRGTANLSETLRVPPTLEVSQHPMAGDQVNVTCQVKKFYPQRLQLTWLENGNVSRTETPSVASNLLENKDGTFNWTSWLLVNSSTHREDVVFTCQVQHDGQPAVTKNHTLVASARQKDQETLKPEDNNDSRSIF
Description: ELISA, plate coated with Fc-tagged SIRPA. As to the method: (§2) In an ELISA assay, 96-well Immulon HBX plates were coated with His- or Fc-tagged SIRPA of a given species, as indicated, at 1 μg/mL in PBS overnight at 4C. Plates were blocked in 5% (w/v) bovine serum albumin in PBS for 1 hour, after which they were washed 3 times with PBS/0.05% Tween 20 (PBS/T). Anti-SIRPA antibodies were added to the plate in a dilution series and were incubated at room temperature for 2 hours, after which the unbound antibody was removed by washing with PBS/T. Horseradish peroxidase-conjugated anti-mouse IgG or anti-human kappa light chain (Jackson Immunoresearch) was then added to the wells and incubated for 30 minutes. Unbound antibody was removed by washing with PBS/T, after which bound antibody was detected using tetramethylbenzidine (TMB). The reaction was stopped with 2N H₂SO₄, after which the plates were read at A450.
(In general: An ELISA detects its analyte on a solid surface through an enzyme-linked reagent.)

The target in assay [7] is T5, Fc-tagged marmoset SIRPA (accession no. JAB51896) (marmoset, UniProt U3F8F0 31-373).
T5 sequence: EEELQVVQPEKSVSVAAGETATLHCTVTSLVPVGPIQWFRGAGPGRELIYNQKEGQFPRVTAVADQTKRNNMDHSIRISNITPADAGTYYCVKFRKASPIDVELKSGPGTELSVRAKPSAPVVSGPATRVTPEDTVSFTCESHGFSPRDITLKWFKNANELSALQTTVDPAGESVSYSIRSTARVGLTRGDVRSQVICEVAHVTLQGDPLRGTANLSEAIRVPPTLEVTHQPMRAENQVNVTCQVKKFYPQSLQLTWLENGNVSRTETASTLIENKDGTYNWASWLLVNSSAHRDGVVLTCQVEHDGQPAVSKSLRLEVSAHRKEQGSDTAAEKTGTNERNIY
The assay is described as follows: ELISA, plate coated with Fc-tagged SIRPA. As for the experimental part: as §2

Another assay has as its target T6, rat SIRPA (rat, UniProt P97710 32-373, limits assumed).
T6 sequence (looked up): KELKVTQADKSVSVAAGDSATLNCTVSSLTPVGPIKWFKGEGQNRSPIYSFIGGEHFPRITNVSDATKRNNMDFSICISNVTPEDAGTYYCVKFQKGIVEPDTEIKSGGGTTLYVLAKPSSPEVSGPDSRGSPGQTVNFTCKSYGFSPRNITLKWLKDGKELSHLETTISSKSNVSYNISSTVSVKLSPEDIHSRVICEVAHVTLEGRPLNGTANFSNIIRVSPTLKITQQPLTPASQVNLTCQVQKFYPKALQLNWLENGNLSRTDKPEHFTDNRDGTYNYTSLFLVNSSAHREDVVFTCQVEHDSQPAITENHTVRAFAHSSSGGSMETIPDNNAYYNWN
The assay is described as follows: ELISA, plate coated with tagged SIRPA at 1 ug/mL. As for the experimental part: as §2

In the next assay the target is T7, huSIRPA v.2 NP542970.1 (human, UniProt P78324 31-373, limits assumed).
T7 construct: see m48; also called human SIRPA v2; human SIRPA-Fc (v2)
T7 sequence (P78324 31-373 limits assumed): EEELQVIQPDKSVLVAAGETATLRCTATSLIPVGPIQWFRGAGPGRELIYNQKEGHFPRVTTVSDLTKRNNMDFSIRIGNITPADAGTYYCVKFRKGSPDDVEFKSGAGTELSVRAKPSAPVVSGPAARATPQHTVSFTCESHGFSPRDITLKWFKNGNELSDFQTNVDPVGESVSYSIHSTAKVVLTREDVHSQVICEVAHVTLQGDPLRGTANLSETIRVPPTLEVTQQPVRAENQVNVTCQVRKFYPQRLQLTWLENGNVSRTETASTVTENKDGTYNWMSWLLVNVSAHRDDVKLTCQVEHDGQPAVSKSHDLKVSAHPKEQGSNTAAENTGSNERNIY
The assay is described as follows: ELISA, plate coated with tagged SIRPA at 1 ug/mL. As to the method:
as §2

A further assay has as its target T8, cynoSIRPA XPO15313153.1 (cynomolgus, UniProt A0A2K5VYQ9).
T8 construct: not tied one by one in the text; also called cynomolgus SIRPA; not shown: Fc or His tag
T8 sequence: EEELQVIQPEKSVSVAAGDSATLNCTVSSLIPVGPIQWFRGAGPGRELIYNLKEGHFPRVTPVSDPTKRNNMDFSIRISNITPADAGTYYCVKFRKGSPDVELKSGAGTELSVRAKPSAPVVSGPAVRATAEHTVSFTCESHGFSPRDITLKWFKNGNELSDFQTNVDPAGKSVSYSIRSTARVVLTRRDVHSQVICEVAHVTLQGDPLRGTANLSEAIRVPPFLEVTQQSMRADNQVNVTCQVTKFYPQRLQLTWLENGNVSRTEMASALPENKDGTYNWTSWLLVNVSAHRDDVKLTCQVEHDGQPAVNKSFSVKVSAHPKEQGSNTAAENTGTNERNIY
Description: ELISA, plate coated with tagged SIRPA at 1 ug/mL. As for the experimental part: as §2

T3 sequence (P78324 31-370): as the sequence (P78324 31-370 limits assumed) above
T1 sequence (P78324 31-504): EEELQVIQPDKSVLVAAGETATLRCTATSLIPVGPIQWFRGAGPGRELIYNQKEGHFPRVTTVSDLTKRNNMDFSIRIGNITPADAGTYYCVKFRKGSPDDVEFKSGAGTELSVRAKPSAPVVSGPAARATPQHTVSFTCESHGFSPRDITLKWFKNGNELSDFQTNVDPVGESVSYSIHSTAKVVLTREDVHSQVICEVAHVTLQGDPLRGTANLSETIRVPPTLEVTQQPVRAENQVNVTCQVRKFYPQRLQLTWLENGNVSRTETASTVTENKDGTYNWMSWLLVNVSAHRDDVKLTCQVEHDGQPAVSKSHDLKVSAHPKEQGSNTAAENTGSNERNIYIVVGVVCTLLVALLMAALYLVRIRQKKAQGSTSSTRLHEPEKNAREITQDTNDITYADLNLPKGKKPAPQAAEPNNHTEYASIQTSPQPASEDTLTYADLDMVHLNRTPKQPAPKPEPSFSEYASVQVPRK

B1: 3F9-14 (antibody)
heavy: not shown
light: DIQLTQSPSSLSASVGDRVTITCRASKSVSSGGYSYMHWYQQKPGKAPKLLIYLASNLESGVPSRFSGSGSGTDFTLTISSVQPEDFATYYCQHNRELPVTFGQGTKLEIKRTVAAPSVFIFPPSDEQLKSGTASVVCLLNNFYPREAKVQWKVDNALQSGNSQESVTEQDSKDSTYSLSSTLTLSKADYEKHKVYACEVTHQGLSSPVTKSFNRGEC
notes: also called mAb 3F9-14; hu3F9-14
Broadly, the EC50 is the concentration needed to bring the measured effect to its halfway point. The low end stands for an effect from little substance, the high end for a need for much substance. Usually Kd stands for the constant that tells how readily two partners part at equilibrium. For orientation: koff means the rate constant with which the complex falls apart. Read a low koff as a long-lived complex. One may read the kon as a measure of how fast the partners come together. Read a high kon as fast association. The molecule B1 registered a concentration for a half-maximal effect (EC50) in assay [1] of 0.42 nM. In addition, in [2], the “fold increase in affinity relative to parental h3F9” value is approximately 10 fold. Further, in assay [3], the “SIRPA IC50 (nM), downregulation on U937 cells” value came to 1.17 nM and the “SIRPA Max % DR, U937 cells” value was determined as 69%. Moreover, in assay [4], the “Phagocytosis, fold increase over baseline activity” value was 1.56 fold; the “SIRPA IC50 (nM), downregulation on human primary macrophages” value was 0.0372 nM; the “SIRPA Max % DR, human primary macrophages” value amounted to 89%. In [5], binding was put at a Kd of 0.618 nM, the koff stood at 0.000102 s⁻¹ and the kon worked out at 165000 M⁻¹ s⁻¹. This molecule had a 50% effective concentration (EC50) in [6] of 0.64 nM. Also, the EC50 in assay [7] worked out at 1.2 nM. Besides, the binding result in the assay with rat SIRPA is “no binding”. Also, in the assay with huSIRPA v.2 NP542970.1, the EC50 was 0.08 nM. The molecule also returned an EC50 with cynoSIRPA XPO15313153.1 of 0.879 nM.

B2: 3F9-22 (antibody)
heavy: not shown
light: B1 light
notes: also called mAb 3F9-22; hu3F9-22
B2 had a concentration for a half-maximal effect (EC50) in assay [1] of 0.49 nM. In [2], the “fold increase in affinity relative to parental h3F9” value is approximately 10 fold. In [3], the “SIRPA IC50 (nM), downregulation on U937 cells” value was 0.187 nM and the “SIRPA Max % DR, U937 cells” value came out at 76%. Also, in assay [4], the “Phagocytosis, fold increase over baseline activity” value came to 1.68 fold; the “SIRPA IC50 (nM), downregulation on human primary macrophages” value came out at 0.0542 nM; the “SIRPA Max % DR, human primary macrophages” value came out at 91%. Also, in [5], the Kd came out at 0.646 nM, the koff was found to be 0.000113 s⁻¹ and the kon was determined as 174000 M⁻¹ s⁻¹. Also, the EC50 in assay [6] was determined as 0.83 nM. Moreover, the EC50 in assay [7] was 4.3 nM. The binding result with rat SIRPA is recorded as “no binding”. The concentration for a half-maximal effect (EC50) in the assay with huSIRPA v.2 NP542970.1 was 0.082 nM. Also, in the assay with cynoSIRPA XPO15313153.1, the 50% effective concentration (EC50) amounted to 0.107 nM.
